The results in this text go back to US9260500B2, “Peptide and use thereof” (Takeda Pharmaceutical Company Limited, priority 2009, dated 2016).

The target of assay [1] is T1, human Y2 receptor (Homo sapiens, UniProt P49146).
T1 construct: expressed in transfected cells; membrane fraction
T1 sequence (P49146 1-381): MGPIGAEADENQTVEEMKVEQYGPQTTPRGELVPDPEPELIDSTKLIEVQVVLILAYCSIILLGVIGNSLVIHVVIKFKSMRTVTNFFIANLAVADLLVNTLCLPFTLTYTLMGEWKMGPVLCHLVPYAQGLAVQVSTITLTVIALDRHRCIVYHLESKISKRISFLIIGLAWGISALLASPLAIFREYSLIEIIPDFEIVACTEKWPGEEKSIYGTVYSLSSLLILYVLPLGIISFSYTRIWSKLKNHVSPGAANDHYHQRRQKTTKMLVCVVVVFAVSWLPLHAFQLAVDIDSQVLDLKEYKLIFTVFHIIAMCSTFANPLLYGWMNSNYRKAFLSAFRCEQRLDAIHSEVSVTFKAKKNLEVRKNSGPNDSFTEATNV
In words: Receptor Binding Assay (RBA) for Human Y2, [125I]-PYY displacement on hY2R/CHO membrane fraction. The following applies: IC50 of test compound/IC50 of PYY(3-36) (PYY(3-36) taken as 1). The essentials:
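Read-out is [125I]-PYY displacement from membranes of CHO/dhfr− cells stably transfected with human Y2R. Membranes were obtained by disrupting cells in a buffer of 10 mM NaHCO3, 5 mM EDTA and protease inhibitors.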

The target in assay [2] is T1, human Y2 receptor. Description: Human Y2 Receptor G Protein Binding Assay (GBA), [35S]GTPγS. It counts as biochemical. The note with it: EC50 of test compound/EC50 of PYY(3-36) (PYY3-36 taken as 1), hY2R/CHO membrane fraction. The essentials: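 Agonism measured as [35S]GTPγS binding, read by GF/C filtration and scintillation counting after 120 min at room temperature, using human Y2 membranes at 1 μg protein/mL in pH 7.4 Tris/MgCl2/NaCl/GDP buffer. Compound serially diluted 100 μM–1 nM; EC50 normalized to PYY(3-36) (ratio = compound/PYY).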
(Binding of GTPγS marks nucleotide exchange on a G protein.)

Assay [3] has as its system male C57EL/6J mice. Description: 3-Days Continuous Subcutaneous Administration Test-1 (food intake suppressing activity). The format is in vivo, mouse. The following applies: 0.03 mg/kg/day, subcutaneous Alzet pump, food consumption over 3 days; relative to food intake suppression rate for PYY(3-36) (1 mg/kg/day) taken as 100%. The essentials:
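Male […] mice, 12-13 weeks, received compound at 0.03 mg/kg/day by subcutaneous osmotic pump (50% DMSO vehicle), housed singly with free food access. Food consumed over 3 days measured; suppression expressed relative to PYY(3-36) (1 mg/kg/day) set as 100%.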

Starred links: 1 amine or outer side, 2 acyl side, 3 side chain; linkers in the order of their positions; H or OH if unused. Non-standard residues stand in square brackets, D forms with d. *: point of attachment. X4 = ((1S)-1-Carboxy-3-methylbutyl)carbamoyl, CC(C)C[C@H](NC(=O)*)C(=O)O; X5 = tetrahydro‑2H‑pyran‑4‑yl‑carbamoyl, O=C(NC1CCOCC1)*; carbamoylmethylcarbamoyl = NC(=O)CNC(=O)*; Imidazole4carbonyl = O=C(c1cnc[nH]1)*; Arg(Me) = CNC(=N)NCCC[C@H](N)C(=O)O; hArg = N=C(N)NCCCC[C@H](N)C(=O)O; tBuAla = CC(C)(C)C[C@H](N)C(=O)O; 4Pal = N[C@@H](Cc1ccncc1)C(=O)O; dHyp = O=C(O)[C@H]1C[C@H](O)CN1; Cha = N[C@@H](CC1CCCCC1)C(=O)O; Isonicotinoyl = O=C(c1ccncc1)*; Suc = O=C(CCC(=O)[*:2])[*:1]; Iva = CC[C@](C)(N)C(=O)O; Aib = CC(C)(N)C(=O)O

For the substance “3-Carboxypropionyl-[Gln23, D-Pro24, Pya(4)26, Cha27,36, Aib28,31, Lys30]-PYY(23-36) (Suc-Q[dP]R[4Pal][Cha][Aib]NK[Aib]TRQR[Cha]-NH2; SMILES C[C@@H](O)[C@H](NC(=O)C(C)(C)NC(=O)[C@H](CCCCN)NC(=O)[C@H](CC(N)=O)NC(=O)C(C)(C)NC(=O)[C@H](CC1CCCCC1)NC(=O)[C@H](Cc1ccncc1)NC(=O)[C@H](CCCNC(=N)N)NC(=O)[C@H]1CCCN1C(=O)[C@H](CCC(N)=O)NC(=O)CCC(=O)O)C(=O)N[C@@H](CCCNC(=N)N)C(=O)N[C@@H](CCC(N)=O)C(=O)N[C@@H](CCCNC(=N)N)C(=O)N[C@@H](CC1CCCCC1)C(N)=O) [compound No. 218]”, the “RBA IC50 Ratio” value in assay [1] came to 2. Also, the “GBA EC50 Ratio” value in assay [2] worked out at 1.9. The “food intake suppression rate (%)” value in assay [3] stood at 27%.

Regarding “Ac-[D-Pro24, Iva25, Pya(4)26, Cha27,36, Aib28,31, Arg(Me)30]-PYY(23-36) (Ac-S[dP][Iva][4Pal][Cha][Aib]N[Arg(Me)][Aib]TRQR[Cha]-NH2) [compound No. 316]”, the “RBA IC50 Ratio” value in assay [1] worked out at 2.4. Moreover, in assay [2], the “GBA EC50 Ratio” value is on record as 1.7. In addition, the “food intake suppression rate (%)” value in assay [3] is 29%.

“Carbamoylmethylcarbamoyl-[D-Pro24, Iva25, Pya(4)26, Cha27,36, Aib28,31, Lys30]-PYY(23-36) (carbamoylmethylcarbamoyl-S[dP][Iva][4Pal][Cha][Aib]NK[Aib]TRQR[Cha]-NH2; SMILES CC[C@](C)(NC(=O)[C@H]1CCCN1C(=O)[C@H](CO)NC(=O)NCC(N)=O)C(=O)N[C@@H](Cc1ccncc1)C(=O)N[C@@H](CC1CCCCC1)C(=O)NC(C)(C)C(=O)N[C@@H](CC(N)=O)C(=O)N[C@@H](CCCCN)C(=O)NC(C)(C)C(=O)N[C@H](C(=O)N[C@@H](CCCNC(=N)N)C(=O)N[C@@H](CCC(N)=O)C(=O)N[C@@H](CCCNC(=N)N)C(=O)N[C@@H](CC1CCCCC1)C(N)=O)[C@@H](C)O) [compound No. 331]”: the “RBA IC50 Ratio” value in assay [1] was 1.7. Moreover, the “GBA EC50 Ratio” value in assay [2] came to 1.7. In assay [3], the “food intake suppression rate (%)” value was determined as 35%.

For “4-Pyridinecarbonyl-[D-Hyp24, Iva25,28, Pya(4)26, Cha27,36, Lys30, Aib31]-PYY (23-36) (Isonicotinoyl-S[dHyp][Iva][4Pal][Cha][Iva]NK[Aib]TRQR[Cha]-NH2; SMILES CC[C@](C)(NC(=O)[C@H](CC1CCCCC1)NC(=O)[C@H](Cc1ccncc1)NC(=O)[C@](C)(CC)NC(=O)[C@H]1C[C@H](O)CN1C(=O)[C@H](CO)NC(=O)c1ccncc1)C(=O)N[C@@H](CC(N)=O)C(=O)N[C@@H](CCCCN)C(=O)NC(C)(C)C(=O)N[C@H](C(=O)N[C@@H](CCCNC(=N)N)C(=O)N[C@@H](CCC(N)=O)C(=O)N[C@@H](CCCNC(=N)N)C(=O)N[C@@H](CC1CCCCC1)C(N)=O)[C@@H](C)O) [compound No. 334]”, the “RBA IC50 Ratio” value in assay [1] amounted to 1.3. In addition, in assay [2], the “GBA EC50 Ratio” value was determined as 1.6. For the same substance, the “food intake suppression rate (%)” value in assay [3] turned out to be 14%.

For the substance “4-Imidazolecarbonyl-[D-Hyp24, Iva25, Pya(4)26, Cha27,36, Leu(Me)28, Lys30, Aib31]-PYY(23-36) (Imidazole4carbonyl-S[dHyp][Iva][4Pal][Cha][tBuAla]NK[Aib]TRQR[Cha]-NH2; ends and bridges not checked) [compound No. 336]”, in assay [1], the “RBA IC50 Ratio” value is 0.75. Also, the “GBA EC50 Ratio” value in assay [2] came to 1.4. Moreover, the “food intake suppression rate (%)” value in assay [3] is reported as 52%.

With “Ac-[D-Pro24, Pya(4)26, Cha27,36, Iva28, Lys30, Aib31]-PYY(23-36) (Ac-S[dP]R[4Pal][Cha][Iva]NK[Aib]TRQR[Cha]-NH2; SMILES CC[C@](C)(NC(=O)[C@H](CC1CCCCC1)NC(=O)[C@H](Cc1ccncc1)NC(=O)[C@H](CCCNC(=N)N)NC(=O)[C@H]1CCCN1C(=O)[C@H](CO)NC(C)=O)C(=O)N[C@@H](CC(N)=O)C(=O)N[C@@H](CCCCN)C(=O)NC(C)(C)C(=O)N[C@H](C(=O)N[C@@H](CCCNC(=N)N)C(=O)N[C@@H](CCC(N)=O)C(=O)N[C@@H](CCCNC(=N)N)C(=O)N[C@@H](CC1CCCCC1)C(N)=O)[C@@H](C)O) [compound No. 233]”, in assay [1], the “RBA IC50 Ratio” value amounted to 0.33. In addition, the “GBA EC50 Ratio” value in assay [2] turned out to be 1.2. Also, the “food intake suppression rate (%)” value in assay [3] is reported as 36%.

Take “[(1S)-1-Carboxy-3-methylbutyl]carbamoyl-[Gln23, D-Pro24, Pya(4)26, Cha27,36, Aib28,31, Lys30]-PYY(23-36) (X4-Q[dP]R[4Pal][Cha][Aib]NK[Aib]TRQR[Cha]-NH2; SMILES CC(C)C[C@H](NC(=O)N[C@@H](CCC(N)=O)C(=O)N1CCC[C@@H]1C(=O)N[C@@H](CCCNC(=N)N)C(=O)N[C@@H](Cc1ccncc1)C(=O)N[C@@H](CC1CCCCC1)C(=O)NC(C)(C)C(=O)N[C@@H](CC(N)=O)C(=O)N[C@@H](CCCCN)C(=O)NC(C)(C)C(=O)N[C@H](C(=O)N[C@@H](CCCNC(=N)N)C(=O)N[C@@H](CCC(N)=O)C(=O)N[C@@H](CCCNC(=N)N)C(=O)N[C@@H](CC1CCCCC1)C(N)=O)[C@@H](C)O)C(=O)O) [compound No. 284]”: the “RBA IC50 Ratio” value in assay [1] worked out at 0.93. In assay [2], the “GBA EC50 Ratio” value came out at 1.3. Besides, the “food intake suppression rate (%)” value in assay [3] is reported as 21%.

Consider “Ac-[Glu23, D-Pro24, Pya(4)26, Cha27,36, Leu(Me)28, Lys30, Aib31]-PYY(23-36) (Ac-E[dP]R[4Pal][Cha][tBuAla]NK[Aib]TRQR[Cha]-NH2; SMILES CC(=O)N[C@@H](CCC(=O)O)C(=O)N1CCC[C@@H]1C(=O)N[C@@H](CCCNC(=N)N)C(=O)N[C@@H](Cc1ccncc1)C(=O)N[C@@H](CC1CCCCC1)C(=O)N[C@@H](CC(C)(C)C)C(=O)N[C@@H](CC(N)=O)C(=O)N[C@@H](CCCCN)C(=O)NC(C)(C)C(=O)N[C@H](C(=O)N[C@@H](CCCNC(=N)N)C(=O)N[C@@H](CCC(N)=O)C(=O)N[C@@H](CCCNC(=N)N)C(=O)N[C@@H](CC1CCCCC1)C(N)=O)[C@@H](C)O) [compound No. 169]”, for which the “RBA IC50 Ratio” value in assay [1] was 0.48. The “GBA EC50 Ratio” value in assay [2] was 0.86. The “food intake suppression rate (%)” value in assay [3] stood at 55%.

With “Ac-[D-Pro24, Iva25, Pya(4)26, Cha27,36, Aib28,31, Har30]-PYY(23-36) (Ac-S[dP][Iva][4Pal][Cha][Aib]N[hArg][Aib]TRQR[Cha]-NH2; SMILES CC[C@](C)(NC(=O)[C@H]1CCCN1C(=O)[C@H](CO)NC(C)=O)C(=O)N[C@@H](Cc1ccncc1)C(=O)N[C@@H](CC1CCCCC1)C(=O)NC(C)(C)C(=O)N[C@@H](CC(N)=O)C(=O)N[C@@H](CCCCNC(=N)N)C(=O)NC(C)(C)C(=O)N[C@H](C(=O)N[C@@H](CCCNC(=N)N)C(=O)N[C@@H](CCC(N)=O)C(=O)N[C@@H](CCCNC(=N)N)C(=O)N[C@@H](CC1CCCCC1)C(N)=O)[C@@H](C)O) [compound No. 317]”, in assay [1], the “RBA IC50 Ratio” value is listed as 0.65. The “GBA EC50 Ratio” value in assay [2] is reported as 1.0. For the same substance, the “food intake suppression rate (%)” value in assay [3] is given as 49%.

As for “Tetrahydro-2H-pyran-4-yl-carbamoyl-[D-Pro24, Pya(4)26, Cha27,36, Aib28,31, Lys30]-PYY(23-36) (X5-S[dP]R[4Pal][Cha][Aib]NK[Aib]TRQR[Cha]-NH2; ends and bridges not checked) [compound No. 270]”, the “RBA IC50 Ratio” value in assay [1] is listed as 0.52. In assay [2], the “GBA EC50 Ratio” value worked out at 0.61. Further, in assay [3], the “food intake suppression rate (%)” value is reported as 28%.

“Ac-[D-Hyp24, Iva25, Pya(4)26, Cha27,36, Leu(Me)28, Lys30, Aib31]-PYY(23-36) (Ac-S[dHyp][Iva][4Pal][Cha][tBuAla]NK[Aib]TRQR[Cha]-NH2; SMILES CC[C@](C)(NC(=O)[C@H]1C[C@H](O)CN1C(=O)[C@H](CO)NC(C)=O)C(=O)N[C@@H](Cc1ccncc1)C(=O)N[C@@H](CC1CCCCC1)C(=O)N[C@@H](CC(C)(C)C)C(=O)N[C@@H](CC(N)=O)C(=O)N[C@@H](CCCCN)C(=O)NC(C)(C)C(=O)N[C@H](C(=O)N[C@@H](CCCNC(=N)N)C(=O)N[C@@H](CCC(N)=O)C(=O)N[C@@H](CCCNC(=N)N)C(=O)N[C@@H](CC1CCCCC1)C(N)=O)[C@@H](C)O) [compound No. 335]”: the “RBA IC50 Ratio” value in assay [1] is 0.97. In addition, the “GBA EC50 Ratio” value in assay [2] is 1.5. Also, in assay [3], the “food intake suppression rate (%)” value was found to be 27%.
